Laboratory results reported in patent US5849493, “Screening assay for compounds stimulating somatostatin transcription factor -1 binding to an STF-1 binding site” (Research Development Foundation, dated 1997).

Key:
[1] = target: T1, Pbx1, in vitro translated protein (human, UniProt P40424); experiment: gel mobility shift, TSEII probe, reticulocyte lysate programmed with PBX RNA
From the text: Isl1 H.D., homeodomain of the lim domain factor Isl1. PBX interaction motif-Isl1 H.D., STF-1-Isl1 fusion protein containing STF-1 PBX interaction motif region (amino acid residues 110–138) fused to the Isl1 homeodomain. cdx3 H.D., homeodomain of the pancreatic homeobox protein cdx3 (amino acid residues 143–253). PBX interaction motif-cdx3, fusion protein containing STF-1 PBX interaction motif region (amino acid residues 110–138) fused to the cdx3 homeodomain (amino acid residues 176–253). PBX interaction motif-STF-1, STF-1 polypeptide containing the PBX interaction motif region (110–138) fused to the STF-1 homeodomain (amino acid residues 140–215). STF-1 H.D. STF-1 homeodomain alone without the PBX interaction motif region. […] Cooperativity with PBX tested with homeodomain fusion proteins shown over each lane. Monomeric and heterodimeric complexes as labeled.
(§1) Gel mobility shift assays were performed exactly as described previously (20) using 0.1 ng of end-labeled double stranded oligonucleotide whose sequences are presented in FIG. 2C. For off-rate analysis, the TSEII probe was first incubated with the proteins at room temperature for 30 minutes, then a 1000-fold excess of unlabeled TSEII oligonucleotide was added and aliquots were loaded at various time points on a running gel. In supershift assays, TU6 nuclear cell extract was preincubated with 1 µl of Pbx (11) or STF-antiserum (20) for 15 minutes at room temperature before adding the TSEII probe.

[2] = target: T1, Pbx1, in vitro translated protein; experiment: gel mobility shift, TSEII probe
Experimental: Deletion endpoints in mutant STF-1 polypeptides are indicated over each lane. For example, Δ1-70 indicates STF-1 polypeptide lacking residues 1–70. Hox 140–215, STF-1 homeodomain polypeptide. […] H.D., STF-1 homeodomain (amino acid residues 140–215). Full length STF-1 protein extends from amino acid residues 1–284.
as §1

binding result [1] | binding result [2] | Binder
no binding | – | GST-PBX interaction motif-cdx3 fusion protein (other) EEPSRVHLPFPWMKSTKAHAWKSQWAGGALGSQVKTRTKDKYRVVYTDHQRLELEKEFHYSRYITIRRKAELAATLGLSERQVKIWFQNRRAKERKINKKKLQQQQQ
– | no binding | STF-1 homeodomain polypeptide Hox 140-215 (other) not shown

The next lines start with the binder.

Binder | binding result [1] | binding result [2]
GST-cdx3 H.D. fusion protein (other) PPGPAATGAAEQLSPSGQRRNLCEWMRKPAQPSLGSQVKTRTKDKYRVVYTDHQRLELEKEFHYSRYITIRRKAELAATLGLSERQVKIWFQNRRAKERKINKKKLQQQQQ | no binding | –
GST-Isl1 H.D. fusion protein (other) KQPEKTTRVRTVLNEKQLHTLRTCYAANPRPDALMKEQLVEMTGLSPRVIRVWFQNKRCKDKKRSIMMKQLQQ | no binding | –
GST-PBX interaction motif-Isl1 H.D. fusion protein (other) EEPSRVHLPFPWMKSTKAHAWKSQWAGGAKQPEKTTRVRTVLNEKQLHTLRTCYAANPRPDALMKEQLVEMTGLSPRVIRVWFQNKRCKDKKRSIMMKQLQQ | no binding | –
